Changes are numbered by the printed parent chain. Blank lines part the entries; values can stand above or below the binder they belong to.
How the values were obtained:
[1] = biological target: T1, monomeric human TNFR2 extracellular domain (human, UniProt P20333 23-257); assay: BLI (Octet Red 96), antibody captured on Fc biosensor, monomeric TNFR2 ECD in solution, 1:1 model
T1 construct: extracellular domain; Analyte in the Octet experiments; also called human TNFR2 ECD
T1 sequence (looked up): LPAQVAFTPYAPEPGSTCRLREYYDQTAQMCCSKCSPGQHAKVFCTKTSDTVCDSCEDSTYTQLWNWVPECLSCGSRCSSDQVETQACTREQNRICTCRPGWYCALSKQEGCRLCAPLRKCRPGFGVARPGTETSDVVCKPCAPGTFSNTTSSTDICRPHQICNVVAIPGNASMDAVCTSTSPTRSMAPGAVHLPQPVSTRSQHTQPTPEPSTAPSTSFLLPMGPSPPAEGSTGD
Procedure: (§1) Analysis of binding to the human and cynomolgus TNFR2 ECD was performed using an Octet Red 96 Instrument™ (ForteBio). […] The experiments were performed using five steps: (1) baseline acquisition (60 s); (2) antibody loading on to anti-human or anti-mouse Fc biosensors (120 s); (3) second baseline acquisition (60 s); (4) association of interacting monomeric human or cynomolgus TNFR2 ECD protein for kₒₙ measurement (120 s); and (5) dissociation of interacting monomeric human or cynomolgus TNFR2 ECD for koff measurement (240-3600 s).
(§2) The interacting monomeric human or cynomolgus ECD was used at 5-6 concentrations of a 3-fold concentration series. The data were analyzed using Octet Data Analysis Software 9.0™ (ForteBio) and fit to the 1:1 binding model. The equilibrium dissociation constants (Kd) were calculated by the ratio of […].

[2] = biological target: T2, monomeric cynomolgus TNFR2 extracellular domain (cynomolgus monkey, UniProt A0A2K5VET2 132-366); assay: as above
T2 construct: extracellular domain; Analyte in the Octet experiments; also called cynomolgus TNFR2 ECD; Cyno TNFR2
T2 sequence: T1 sequence (looked up) with S16G, S36P, P117Q, N164H, E210A, S216G, M223V
Procedure: as §1, §2

human TNFR2 on cells = biological target: T3, human TNFR2 on cells (human, UniProt P20333 23-461); assay: flow cytometry on human PBMC, antibody at 10 ug/mL, anti-human Fc-PE secondary
T3 construct: whole, on cells; also called TNFR2 on Jurkat clone H6; human TNFR2 on CD4+ and CD8+ T cells
T3 sequence (looked up): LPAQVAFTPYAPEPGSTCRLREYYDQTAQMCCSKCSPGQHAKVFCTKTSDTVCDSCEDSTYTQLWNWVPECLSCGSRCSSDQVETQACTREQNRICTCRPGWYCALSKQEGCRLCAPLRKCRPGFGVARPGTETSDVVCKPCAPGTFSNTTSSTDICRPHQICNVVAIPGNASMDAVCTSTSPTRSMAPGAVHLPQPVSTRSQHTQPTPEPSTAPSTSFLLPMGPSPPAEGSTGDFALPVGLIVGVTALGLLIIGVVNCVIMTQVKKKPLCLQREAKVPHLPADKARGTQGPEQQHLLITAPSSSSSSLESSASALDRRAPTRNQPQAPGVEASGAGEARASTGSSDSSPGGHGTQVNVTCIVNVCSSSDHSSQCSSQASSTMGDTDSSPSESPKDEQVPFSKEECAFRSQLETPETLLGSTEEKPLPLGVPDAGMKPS
Procedure: The following day 0.3×10⁶ PBMC were counted and washed with PBS (Lonza). PBMCs were resuspended in Fixable Viability Stain 575V (BD) diluted 1:1,000 in PBS and incubated for 10 minutes. PBMCs were then washed twice in PBS to remove residual viability stain. PBMCs were then resuspended in Horizon Brilliant Stain Buffer (BD) with 10 uL per test of human Fc receptor binding inhibitor (eBioscience) and incubated on ice for 20 minutes to block Fc receptors. […] PBMCs were incubated 20 minutes on ice and then washed three times with 2% FBS PBS. To visualize TNFR chimeric antibody binding, PBMCs were resuspended in goat anti-human Fc-PE F(ab′)₂ secondary reagent (Jackson ImmunoResearch) diluted 1:200 in 2% FBS PBS and incubated on ice for 20 minutes. Cells were then washed three times in 2% FBS PBS and resuspended in 200 uL 2% FBS PBS for flow cytometry analysis using a BD FACS Celesta instrument and FACS Diva software. T cells were analyzed for chimeric TNFR2 binding by gating on viable cells defined as lymphocytes using forward and side scatter and as T cells by anti-CD3 staining. CD4⁺ and CD8⁺ subsets were identified by commercially available specific antibody conjugates.

soluble human TNFR2 [3] = biological target: T4, soluble human TNFR2 (human, UniProt P20333 23-257); assay: competition ELISA: plate-bound soluble human TNFR2, competitor biotinylated TNFα; IC50 relative to unlabelled TNFα = 1.00
T4 construct: also called soluble TNFR2
T4 sequence (looked up): T1 sequence (looked up)
Procedure: (§3) Soluble human TNFR2 (Sino Biological, 10417-H08H) or cynomolgus TNFR2 (Sino Biological, 90102-C08H) was coated on Nunc-Immuno™ plates at 0.1 μg/ml, 0.5 ug/ml, 1 μg/ml, and 5 μg/ml. […] Plates were developed using TMB and stopped with 3 M HCl.

soluble human TNFR2 [4] = biological target: T4, soluble human TNFR2; assay: competition ELISA, plate-bound soluble human TNFR2, biotinylated TNFα as competitor
Procedure: as §3
IC₅₀ values are reported in nM.

soluble human TNFR2 [5] = biological target: T4, soluble human TNFR2; assay: competition ELISA: plate-bound soluble human TNFR2, competitor biotinylated TNFα, streptavidin-HRP, A450
Procedure: as §3

[6] = biological target: T5, cynomolgus TNFR2 on cells (cynomolgus); assay: flow cytometry on cynomolgus PBMC, antibody at 10 ug/mL, anti-human Fc-PE secondary
T5 construct: whole, on cells; also called cynomolgus TNFR2 on CD4+ and CD8+ T cells
Procedure: Cynomolgus peripheral blood mononuclear cells (PBMCs) from two independent donors were isolated by diluting whole blood (SNBL USA) 1:1 in PBS (Lonza), layering over Ficoll-Paque Plus (GE Healthcare), and centrifuging for 35 minutes at 400×g. The PBMC fraction was removed, washed 3 times in 2% FBS PBS and counted. 0.3×10⁶ PBMC were resuspended in Fixable Viability Stain 575V (BD) diluted 1:1000 in PBS and incubated for 10 minutes. PBMC were then washed twice in PBS to remove residual viability stain, resuspended in Horizon Brilliant Stain Buffer (BD) with 10 uL per test of human Fc receptor binding inhibitor (eBioscience), and incubated on ice for 20 minutes to block Fc receptors. […] PBMC were incubated 20 minutes on ice and then washed three times with 2% FBS PBS. To visualize TNFR2 chimeric antibody binding, PBMC were resuspended in goat anti-human Fc-PE F(ab′)₂ secondary reagent (Jackson ImmunoResearch) diluted 1:200 in 2% FBS PBS and incubated on ice for 20 minutes. Cells were then washed three times in 2% FBS PBS and resuspended in 200 uL 2% FBS PBS for flow cytometry analysis using a BD FACS Celesta instrument and FACS Diva software. T cells were analyzed for chimeric TNFR2 binding by gating on viable cells defined as lymphocytes using forward and side scatter and as T cells by anti-CD3 staining. CD4⁺ and CD8⁺ subsets were identified using commercial specific antibody conjugates.

[7] = biological target: T1, monomeric human TNFR2 extracellular …; assay: BLI (Octet Red 96), Human TNFR2 Kd (1-1)
[8] = biological target: T1, monomeric human TNFR2 extracellular …; assay: BLI (Octet Red 96), CHO supernatant antibody on anti-human Fc biosensor, 100 nM monomeric human TNFR2 ECD, 1:1 model
Procedure: Analysis of binding to human TNFR2 ECD was performed using Octet Red 96 instrument (ForteBio). The Octet systems use propriety BLI to analyze biomolecular interaction. CHO supernatants of hSBT-002a, hSBT-002b, hSBT-002c, hSBT-002d, hSBT-002e, and chSBT-002n were diluted to 20 ug/ml based on titers with expression media and immobilized using anti-human Fc biosensors. These were incubated with 100 nM monomeric human TNFR2 in PBS. The experiments comprised of 5 steps: (1) baseline acquisition (60 s); (2) antibodies loading onto anti-human Fc biosensor (120 s); (3) second baseline acquisition (60 s); (4) association of interacting monomeric human TNFR2 ECD protein for kₒₙ measurement (120 s); (5) Dissociation of interacting monomeric human TNFR2 ECD for koff measurement (300 s). Data were analyzed using Octet Data Analysis Software 9.0 (ForteBio) and fitted to the 1:1 binding model. Equilibrium dissociation constants (Kd) were calculated by the ratio of […].

Kd [1]: 0.25 nM
Kd [2]: 470 nM
% CD4^+ ab^+ Donor 1 (human TNFR2 on cells): 44.4%
% CD4^+ ab^+ Donor 2 (human TNFR2 on cells): 35%
% CD8^+ ab^+ Donor 1 (human TNFR2 on cells): 23.8%
% CD8^+ ab^+ Donor 2 (human TNFR2 on cells): 17.7%
Relative IC50 (soluble human TNFR2 [3]): 5.79 nM
Average Relative IC50 (soluble human TNFR2 [4]): 5.33 nM
IC50 (soluble human TNFR2 [5]): 14.4 nM
% CD4^+ ab^+ Donor 1 [6]: 0.7%
% CD4^+ ab^+ Donor 2 [6]: 1.2%
% CD8^+ ab^+ Donor 1 [6]: 0.6%
% CD8^+ ab^+ Donor 2 [6]: 2.1%
B1: chimeric SBT-003 (antibody, V domains shown)
VH: QIQLVQSGPELKKPGETVKISCKASGYTFTDYSMHWVKQAPGKGLKWMGWINTETGEPTYADDFKGRFAFSSETSTSTAYLQINNLKNDDTTTYFCATYYGSSYVPDYWGQGTSLTVSS
VL: DIVMTQSHKFMSTSVGDRVSITCKASQNVGTAVAWYQHKPGQSPKLLIYWTSSRHTGVPDRFTGSGSGTEFTLTISNVQSEDLADYFCHQYSDYPYTFGGGTKLEIK
notes: also called chSBT-003

Kd [7]: 1 nM
B2: chimeric SBT-003 Fc null (antibody, V domains shown)
VH: B1 VH
VL: B1 VL
notes: also called chSBT-003n

Kd [8]: 2.44 nM
koff [8]: 0.000424 s⁻¹
B3: hSBT-002b (antibody, V domains shown)
VH: QVTLKESGPALVKPTQTLTLTCTFSGFSLSTSGMGVGWIRQPPGKALEWLAHIWWDDDKFYNPSLKSQLTISKDTSKNQVVLTMTNMDPVDTATYYCARITGTRYFDYWGQGTTVTVSS
VL: DVQMTQSPSSLSASVGDRVTITCKASQDINKFIAWYQQKPGKAPKLLIHYTSTLQPGIPSRFSGSGSGTDFTFTISSLQPEDIATYYCLQYGNLWTFGGGTKVEIK
notes: Humanized SBT-002; VH fused to human IgG1 Fc null, VL to human Ck; Tested as CHO supernatant

Kd [8]: 1.73 nM
koff [8]: 0.000301 s⁻¹
B4: hSBT-002d (antibody, V domains shown)
VH: B3 VH
VL: B3 VL with T69R, F71Y
notes: as for B3

Kd [8]: 4.89 nM
koff [8]: 0.000722 s⁻¹
B5: hSBT-002a (antibody, V domains shown)
VH: B3 VH with Q68R
VL: B3 VL with V2I, H49Y, I58V
notes: as for B3

Kd [8]: 2.27 nM
koff [8]: 0.000446 s⁻¹
B6: hSBT-002c (antibody, V domains shown)
VH: B3 VH with Q68R, I100L
VL: B3 VL
notes: as for B3

Kd [8]: 1.54 nM
koff [8]: 0.000268 s⁻¹
B7: hSBT-002e (antibody, V domains shown)
VH: B3 VH with Q68R, I100L
VL: B3 VL with T69R, F71Y
notes: as for B3

Kd [7]: 2.5 nM
Kd [8]: 1.92 nM
koff [8]: 0.000361 s⁻¹
B8: chimeric SBT-002 Fc null (antibody, V domains shown)
VH: QVTLKESGPGILQPSQTLSLTCSFSGFSLSTSGMGVGWIRQPSGKGLEWLAHIWWDDDKFYNPSLKSQLTISKDTSRNQVFLKLTSVVTADTATYYCARLTGTRYFDYWGQGTTLTVSS
VL: DVQMTQSPSSLSASLGGKVTITCKASQDINKFIAWYQHKPGKGPRLLIHYTSTLQPGIPSKFSGSGSGRDYSFSISNLEPEDIATYYCLQYGNLWTFGGGTKLEIT
notes: also called chSBT-002n

Kd [1]: 1.8 nM
Kd [2]: 58.3 nM
B9: chimeric SBT-001 (antibody, V domains shown)
VH: EVQLQQSGAELVKPGASVKISCKASGYTFTDYNMDWVKQSHGKSLEWIGDINPNYESTSYNQKFKGKATLTVDKSSSTAYMEVRSLTSEDTAVFYCARDKGWYFDVWGAGTTVTVSS
VL: ENVLTQSPAIMSASLGEKVTMSCRASSSVKNMYWYQQKSDASPKLWIYYTSNLAPGVPARFSGSGSGNSYSLTISSMEGEDAATYYCQQFTSSPYTFGGGTKLELK
notes: also called chSBT-001

Reference: patent US20190202925A1 (OPI VI IP HOLDCO, published 2019)
